Reference: PMC4916044

Target: endogenous NFκB2 p100 (mouse (endogenous in NFκB2+/+ MEFs)) (UniProt Q9WTK5)
Assay: immunodepletion

Sequence of UniProt Q9WTK5 (Q9WTK5 whole entry): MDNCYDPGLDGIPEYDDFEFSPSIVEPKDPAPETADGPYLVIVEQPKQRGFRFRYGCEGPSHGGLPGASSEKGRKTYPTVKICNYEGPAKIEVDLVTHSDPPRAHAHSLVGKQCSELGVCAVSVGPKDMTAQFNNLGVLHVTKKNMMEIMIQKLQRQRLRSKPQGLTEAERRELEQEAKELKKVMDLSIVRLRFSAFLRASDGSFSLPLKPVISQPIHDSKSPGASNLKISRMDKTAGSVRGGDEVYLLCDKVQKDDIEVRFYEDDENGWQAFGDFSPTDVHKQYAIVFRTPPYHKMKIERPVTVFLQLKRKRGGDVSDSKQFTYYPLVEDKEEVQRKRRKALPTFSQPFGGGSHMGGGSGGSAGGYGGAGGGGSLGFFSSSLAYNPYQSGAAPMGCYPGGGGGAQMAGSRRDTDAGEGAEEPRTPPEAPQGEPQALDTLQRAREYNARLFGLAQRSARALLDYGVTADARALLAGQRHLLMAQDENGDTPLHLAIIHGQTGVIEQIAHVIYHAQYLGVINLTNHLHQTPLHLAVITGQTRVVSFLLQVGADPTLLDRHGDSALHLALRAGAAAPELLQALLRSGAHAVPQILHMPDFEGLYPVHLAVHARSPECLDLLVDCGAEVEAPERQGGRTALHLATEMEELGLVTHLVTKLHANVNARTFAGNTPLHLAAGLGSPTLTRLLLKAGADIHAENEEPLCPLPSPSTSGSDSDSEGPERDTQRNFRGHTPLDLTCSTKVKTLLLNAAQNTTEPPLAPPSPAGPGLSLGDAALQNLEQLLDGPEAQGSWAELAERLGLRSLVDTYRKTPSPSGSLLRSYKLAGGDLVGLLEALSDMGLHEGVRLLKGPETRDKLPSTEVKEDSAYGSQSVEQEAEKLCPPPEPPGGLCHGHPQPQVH

- percent of endogenous ERK2 pulled down with p100 (immunodepletion): 46%
Substance: endogenous ERK2 (from UniProt P63085 1-358) (natural protein)
